From patent US6451762B1 (Novo Nordisk A/S, priority 1997, dated 2002)
Entries after “also recorded” stand apart in the source; their conditions may differ. Marks after values point to notes of the source that are not given here.

Assays:
[1] = Gel filtration on Sephacryl S-300 HR (aggregate formation, method 1); type: physicochemical; design: key to KAV: KAV=(VE-V0)/(VT-V0); fraction of available elution volume; conditions: for KAV: Sephacryl S-300 HR; for formation of high molecular weight soluble aggregates: gel filtration at neutral pH, formulation used (Table 1)
Protocol: A pH neutral aqueous buffer system is used in the gel filtration and the insulin derivatives in the aggregated state are applied to the column in the form of a pharmaceutical preparation at a concentration of 600 nmol insulin/ml. […] However, when the actual state of aggregation in a pharmaceutical preparation is to be assessed, the medium of the preparation, exclusive the Zn^2+ which is insulin bound, is used as the eluent for the gel filtration. A column of 28×1 cm is eluted at a rate of 15 ml/h. Insulin derivatives were injected (200 μl) as a standard formulation comprising 600 μM derivative, 200 or 300 μM Zn^2+, 20 mM NaCl (or varied), 16 mM phenol, 16 mM m-cresol, 7 mM sodium phosphate at pH 7.5. Exclusion limit of Sephacryl® S-300 HR is stated by the manufacturer, Pharmacia, as a molecular weight of 1,500 kDa for globular proteins and 400 kDa for linear dextrans. In practice the elution of solutes of different size is characterised by the available volume as KAV values: KAV=(VE-V0)/(VT-V0) where VE is elution volume, V0 is void volume, e.g. elution volume of blue dextran, VT is total volume. Thus, the KAV value is independent of column dimension. […]

[2] = Gel filtration method 2 on Superose 6HR (HPLC, 37° C.); type: physicochemical; conditions: 140 mM NaCl, 10 mM tris, pH 7.4; for KAV (Superose 6HR): standards; for KAV (Superose 6HR) 2Zn^2+/6 ins: 2 Zn2+/6 ins; for KAV (Superose 6HR) 3Zn^2+/6 ins: 3 Zn2+/6 ins
Protocol: An alternative method to measure the capability of insulin derivatives of forming soluble high molecular weight aggregates was developed, suitable for HPLC equipment. The column dimensions, injection volume, and flow rate correspond to the first method, whereas the temperature is increased to 37° C. and the phosphate buffer is changed to trishydroxymethylaminomethan hydrochloride and additional sodium chloride. The aggregated state of insulin is defined to elute before the gel filtration standard aldolase like in the first method.

Albumin = Albumin (Homo sapiens, UniProt P02768)
[3] = Disappearance after subcutaneous injection in pigs; conditions: pig, in vivo, sc
Text: The gel filtration experiment using the conditions prescribed in this section is the direct physico-chemical method to reveal the potential aggregate formation property of an insulin derivative. Disappearance after subcutaneous injection in pigs reflects the combination of the albumin binding and polymer formation properties of the insulin derivative, besides a variety of biological factors.

[4] = Gel filtration on Sephacryl S-300 HR (aggregate formation, method 1); type: physicochemical; design: key to KAV: KAV=(VE-V0)/(VT-V0); fraction of available elution volume
[5] = pH 7.4 eluent, standards applied dissolved in water
[6] = eluent 125 mM NaCl, 20 mM sodium phosphate pH 7.4, sample 600 μM derivative, 200 μM Zn2+, 0-20 mM NaCl, phenol, m-cresol, pH 7.5

Molecule | KAV (Superose 6HR) 2Zn^2+/6 ins [2] | KAV (Superose 6HR) 3Zn^2+/6 ins [2] | Albumin binding Kass (Albumin) | Disappearance in pigs, T50% [3] [h] | also measured
Albumin: molecular size standard, Mw 67 kDa [reference compound] |  |  |  |  | KAV [1, 5]: ~0.38
Aldolase: molecular size standard, Mw 158 kDa [reference compound] |  |  |  |  | KAV (Superose 6HR) [2]: 0.50; KAV [1, 5]: ~0.32
Asp^A21 Lys^B29(N^ε-tetradecanoyl-) des(B30) HI | 0.55 | 0.46 | 0.97 10^5M^−1 | 16.4 | 
B9Asp, B27Glu human insulin [reference compound] |  |  | 0 (mol/l)^−1 |  | KAV (Superose 6HR) [2]: 0.73; KAV [1, 5]: 0.71; KAV ([1]; pH 7.4 eluent, standards applied dissolved in water, listed as monomeric form of insulin): about 0.71; Disappearance T50% [3]: (1) h
Ferritin [reference compound] |  |  |  |  | KAV (Superose 6HR) [2]: 0.40; KAV [1, 5]: 0.19
Lys^B29(N^ε cholesteryloxycarbonyl) |  |  |  |  | KAV [1, 6]: 0.00
Lys^B29(N^ε decanoyl) |  |  | 0.06 × 10^5 (mol/l)^−1 |  | KAV ([1]; eluent 125 mM NaCl, 20 mM sodium phosphate pH 7.4, sample 600 μM, 300 μM Zn2+): 0.67; Disappearance T50% [3]: 5.1 h
Lys^B29(N^ε lithocholyl |  |  |  |  | KAV ([4]; Sephacryl S-300 HR, pH 7.4 eluent, Zinc free): 0.74
Lys^B29(N^ε ω-carboxynonadecanoyl) des(B30) |  |  | 36 × 10^5 (mol/l)^−1 |  | KAV [1, 6]: 0.04; Disappearance T50% [3]: 21.9 h
Lys^B29(N^ε-cholanoyl-) des(B30) HI | 0.40 | 0.17 | 0.48 10^5M^−1 | 20.1 | 
Lys^B29(N^ε-dehydrolithocholoyl-) des(B30) HI | 0.05 | 0.03 | 0.26 10^5M^−1 | >34 | 
Lys^B29(N^ε-deoxycholoyl-γ-Glu-) des(B30) HI | 0.20 | 0.07 | 0.03 10^5M^−1 | 13.9 | 
Lys^B29(N^ε-hexadecanoyl-α-amido-γ-Glu-) des(B30) HI | 0.38 | 0.41 | 0.56 10^5M^−1 | 15.3 | 
Lys^B29(N^ε-lithocholoyl-) des(B30) HI | −0.01 | 0.23 | 0.38 10^5M^−1 | >34 | 
Lys^B29(N^ε-lithocholoyl-α-amido-γ-Glu-) des(B30) HI | −0.02 | 0.00 | 0.23 10^5M^−1 | >34 | 
Lys^B29(N^ε-lithocholoyl-β-Ala-) des(B30) HI | 0.00 | 0.13 |  |  | 
Lys^B29(N^ε-lithocholoyl-β-Asp-) des(B30) HI | 0.18 | 0.11 |  |  | 
Lys^B29(N^ε-lithocholoyl-γ-aminobutanoyl-) des(B30) HI | 0.06 | 0.00 |  |  | 
Lys^B29(N^εlithocholyl-α-Glu-) des(B30) human insulin |  |  | 0.3 × 10^5 (mol/l)^−1 |  | KAV [1, 6]: 0.53; formation of high molecular weight soluble aggregates [1]: only the first forms aggregates; also recorded: incapable of forming soluble high molecular weight aggregates; Disappearance T50% [3]: 11.8 h
Lys^B29(N^εlithocholyl-γ-Glu-) des(B30) human insulin [Lys^B29(N^ε lithocholyl-γ-Glu-) des(B30)] | 0.00 | −0.01 |  | 22.8 | KAV [1, 6]: 0.04*; formation of high molecular weight soluble aggregates [1]: capable of forming soluble high molecular weight aggregates; formation of high molecular weight soluble aggregates ([1]; listed as Ly B^29(N^εlithocholyl-γ-Glu-) des(B30) human insulin): capable of forming high molecular weight soluble aggregates; Disappearance T50% [3]: 22.8 h
Lys^B29(N^εtetradecanoyl) des(B30) human insulin [Lys^B29(N^ε tetradecanoyl) des(B30), reference compound] | 0.58 | 0.56 |  |  | KAV [1, 6]: 0.51; formation of high molecular weight soluble aggregates [1]: incapable of forming soluble high molecular weight aggregates; Disappearance T50% [3]: 14.3 h
Lys^B29(N^εω-carboxyheptadecanoyl) des(B30) human insulin |  |  | 25 × 10^5 (mol/l)^−1 |  | formation of aggregates ([4]; gel filtration, absence of Zn2+ (0 Zn2+/hexamer)): aggregates are not formed; KAV [1, 6]: 0.05; KAV ([1]; medium of the preparation as eluent: 5 mM sodium phosphate pH 7.5, 10 mM NaCl, 16 mM phenol, 16 mM m-cresol, 1.6% glycerol, 2-3 Zn2+/hexamer): about 0.45; formation of high molecular weight soluble aggregates [1]: capable of forming high molecular weight soluble aggregates; degree of aggregation in the published formulation ([1]; medium of the preparation as eluent, 10 mM NaCl, 2-3 Zn2+/hexamer): no high molecular weight aggregates of insulin derivatives was present; Disappearance T50% [3]: 18.7 h
Thyroglobulin: molecular size standard, Mw 669 kDa [reference compound] |  |  |  |  | KAV (Superose 6HR) [2]: 0.28; KAV [1, 5]: 0.08
Catalase: molecular size standard, Mw 232 kDa (protein, UniProt P00432 2-527, looked up) Catalase: ADNRDPASDQMKHWKEQRAAQKPDVLTTGGGNPVGDKLNSLTVGPRGPLLVQDVVFTDEMAHFDRERIPERVVHAKGAGAFGYFEVTHDITRYSKAKVFEHIGKRTPIAVRFSTVAGESGSADTVRDPRGFAVKFYTEDGNWDLVGNNTPIFFIRDALLFPSFIHSQKRNPQTHLKDPDMVWDFWSLRPESLHQVSFLFSDRGIPDGHRHMNGYGSHTFKLVNANGEAVYCKFHYKTDQGIKNLSVEDAARLAHEDPDYGLRDLFNAIATGNYPSWTLYIQVMTFSEAEIFPFNPFDLTKVWPHGDYPLIPVGKLVLNRNPVNYFAEVEQLAFDPSNMPPGIEPSPDKMLQGRLFAYPDTHRHRLGPNYLQIPVNCPYRARVANYQRDGPMCMMDNQGGAPNYYPNSFSAPEHQPSALEHRTHFSGDVQRFNSANDDNVTQVRTFYLKVLNEEQRKRLCENIAGHLKDAQLFIQKKAVKNFSDVHPEYGSRIQALLDKYNEEKPKNAVHTYVQHGSHLSAREKANL |  |  |  |  | KAV [1, 5]: 0.30
Ribonuclease: molecular size standard, Mw 13.7 kDa (protein, UniProt P61823 27-150, looked up) Ribonuclease pancreatic: KETAAAKFERQHMDSSTSAASSSNYCNQMMKSRNLTKDRCKPVNTFVHESLADVQAVCSQKNVACKNGQTNCYQSYSTMSITDCRETGSSKYPNCAYKTTQANKHIIVACEGNPYVPVHFDASV |  |  |  |  | KAV (Superose 6HR) [2]: 0.72; KAV [1, 5]: 0.63
Ovalbumin: molecular size standard, Mw 43 kDa (protein, UniProt P01012 2-386, looked up) Ovalbumin: GSIGAASMEFCFDVFKELKVHHANENIFYCPIAIMSALAMVYLGAKDSTRTQINKVVRFDKLPGFGDSIEAQCGTSVNVHSSLRDILNQITKPNDVYSFSLASRLYAEERYPILPEYLQCVKELYRGGLEPINFQTAADQARELINSWVESQTNGIIRNVLQPSSVDSQTAMVLVNAIVFKGLWEKAFKDEDTQAMPFRVTEQESKPVQMMYQIGLFRVASMASEKMKILELPFASGTMSMLVLLPDEVSGLEQLESIINFEKLTEWTSSNVMEERKIKVYLPRMKMEEKYNLTSVLMAMGITDVFSSSANLSGISSAESLKISQAVHAAHAEINEAGREVVGSAEAGVDAASVSEEFRADHPFLFCIKHIATNAVLFFGRCVSP |  |  |  |  | KAV (Superose 6HR) [2]: 0.58
